Source: patent US20140087995A1 (published 2014)
Numbered stars: 1 amine (or outer) side, 2 acyl side, 3 side chain; on linkers, the order of the positions; unused ones are H or OH. Bridge positions count the residues as written; N and C are the ends. Side chains are listed from the residue outwards. Ends that are not written are not given here. * marks the point of attachment. C20 diacid = O=C(O)CCCCCCCCCCCCCCCCCCC(=O)*; γGlu = O=C(O)[C@H](CCC(=O)[*:2])N[*:1]; AEEA = NCCOCCOCC(=O)O

T1: rat calcitonin receptor (rat, UniProt P32214 25-516)
T1 construct: whole, on cells; Membranes of transiently transfected BHK tk'ts 13 cells (Assay VIII); also called rCTR
T1 sequence (looked up): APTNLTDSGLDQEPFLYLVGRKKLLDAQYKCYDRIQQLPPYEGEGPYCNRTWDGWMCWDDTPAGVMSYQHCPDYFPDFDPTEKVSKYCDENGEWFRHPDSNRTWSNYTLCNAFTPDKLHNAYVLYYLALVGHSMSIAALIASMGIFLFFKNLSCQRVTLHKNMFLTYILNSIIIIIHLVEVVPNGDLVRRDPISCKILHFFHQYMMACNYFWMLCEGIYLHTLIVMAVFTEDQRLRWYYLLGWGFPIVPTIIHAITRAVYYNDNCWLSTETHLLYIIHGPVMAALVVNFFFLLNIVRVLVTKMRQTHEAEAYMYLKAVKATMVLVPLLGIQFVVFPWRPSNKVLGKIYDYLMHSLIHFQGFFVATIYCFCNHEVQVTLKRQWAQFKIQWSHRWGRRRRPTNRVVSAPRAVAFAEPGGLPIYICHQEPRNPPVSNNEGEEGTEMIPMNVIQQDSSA

T2: rat amylin receptor (rat calcitonin receptor + rat RAMP 3) (rat, UniProt P32214 25-516; Q9JJ73 23-147)
T2 construct: whole, on cells; Membranes of transiently transfected BHK tk'ts 13 cells (Assay VI); also called rAmylin-R; rat amylin 3(a) receptor
T2 sequence (looked up) 1: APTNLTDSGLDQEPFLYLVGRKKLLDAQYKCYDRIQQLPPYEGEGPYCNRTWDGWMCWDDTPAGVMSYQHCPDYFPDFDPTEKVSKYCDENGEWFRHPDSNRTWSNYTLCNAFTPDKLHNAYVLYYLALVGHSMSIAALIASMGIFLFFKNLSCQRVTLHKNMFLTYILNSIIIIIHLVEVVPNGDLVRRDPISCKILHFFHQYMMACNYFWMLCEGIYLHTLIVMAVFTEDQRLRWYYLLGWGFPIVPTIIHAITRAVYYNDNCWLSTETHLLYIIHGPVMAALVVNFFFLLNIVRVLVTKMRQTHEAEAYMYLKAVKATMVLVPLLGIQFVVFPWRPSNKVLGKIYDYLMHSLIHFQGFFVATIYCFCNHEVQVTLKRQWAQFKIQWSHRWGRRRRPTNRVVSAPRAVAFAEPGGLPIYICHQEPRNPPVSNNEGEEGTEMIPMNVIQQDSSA
T2 sequence (looked up) 2: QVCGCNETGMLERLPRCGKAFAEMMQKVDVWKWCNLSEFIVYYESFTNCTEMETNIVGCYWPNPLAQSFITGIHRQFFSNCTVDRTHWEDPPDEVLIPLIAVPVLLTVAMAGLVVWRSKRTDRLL

T3: human calcitonin receptor (human, UniProt P30988 25-474)
T3 construct: whole, on cells; Membranes of a stably transfected BHK cell line (Assay VII); also called hCTR; hCT
T3 sequence (looked up): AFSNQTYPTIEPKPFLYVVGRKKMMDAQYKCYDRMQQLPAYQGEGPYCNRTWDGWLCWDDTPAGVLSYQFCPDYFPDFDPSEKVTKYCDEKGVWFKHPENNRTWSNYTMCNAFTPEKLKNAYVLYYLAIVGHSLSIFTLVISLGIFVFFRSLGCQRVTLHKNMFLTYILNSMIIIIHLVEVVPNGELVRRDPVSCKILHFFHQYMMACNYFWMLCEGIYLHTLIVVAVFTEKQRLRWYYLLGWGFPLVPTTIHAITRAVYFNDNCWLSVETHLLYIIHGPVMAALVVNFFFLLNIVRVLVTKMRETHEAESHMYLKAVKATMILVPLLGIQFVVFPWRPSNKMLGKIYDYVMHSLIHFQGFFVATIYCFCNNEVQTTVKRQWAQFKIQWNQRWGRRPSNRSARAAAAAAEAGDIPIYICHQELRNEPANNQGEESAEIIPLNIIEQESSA


Assays:
[1] = molecular target: T1, rat calcitonin receptor; assay: ratio IC50 rat calcitonin receptor / IC50 rat amylin receptor (reference)
[2] = molecular target: T2, rat amylin receptor (rat calcitonin …); assay: SPA competition with 125I-rat amylin, membranes of BHK cells with rat calcitonin receptor + rat RAMP3 (Assay VI)
[3] = molecular target: T3, human calcitonin receptor; assay: ratio IC50 human calcitonin receptor / IC50 human amylin receptor (reference)
Description: The resulting pellet was resuspended, homogenized and centrifuged (20.000 rpm, 15 min) in a buffer containing 20 mM Na-HEPES and 0.1 mM EDTA (pH 7.4, buffer 2). The resulting pellet was resuspended in buffer 2 and protein concentration was measured (BCA protein Assay, Pierce). The homogenate was kept cold during the whole procedure. The membranes were kept at −80° C. until use. The assay was performed in a 384 well Optiplate (PerkinElmer) in a total volume of 40 ul. Membranes were mixed with SPA beads. Final concentration of membranes 35 ng/μL final and SPA beads was 0.05 mg/well. Test-compounds were dissolved in DMSO and further diluted in assay buffer (50 mM Hepes, pH 7.4, 1 mM CaCl2, 5 mM MgCl₂, 0.1% OA and 0.02% Tween20). […] The final mixture was incubated with shaking at 400 rpm for 120 min at 25° C. prior to centrifugation (1500 rpm, 10 min). Samples were analyzed on TopCounter™ (Packard). The IC₅₀ was calculated using (one site binding competition analysis) GraphPad Prism5 as a measure of receptor affinity.
Membranes were prepared in the following way; the cells were rinsed with PBS and incubated with Versene for approximately 5 min before harvesting. The cells were flushed with PBS and the cell-suspension was centrifuged for 5 min at 1000 rpm. Cells were homogenized (Ultrathurrax) in a buffer containing 20 mM Na-HEPES and 10 mM EDTA (pH 7.4) and centrifuged at 20.000 rpm for 15 min. The resulting pellet was resuspended, homogenized and centrifuged (20.000 rpm, 15 min) in a buffer containing 20 mM Na-HEPES and 0.1 mM EDTA (pH 7.4, buffer 2). The resulting pellet was resuspended in buffer 2 and protein concentration was measured (BCA protein Assay, Pierce). The homogenate was kept cold during the whole procedure. The membranes were kept at −80° C. until use. Assay was performed in a 384 well Optiplate (PerkinElmer) in a total volume of 40 ul. Membranes were mixed with SPA beads.

[4] = molecular target: T1, rat calcitonin receptor; assay: SPA competition with 125I-calcitonin, membranes of BHK cells with rat calcitonin receptor (Assay VIII)

Binder | Ratio rCT/rAmylin binding [1] | IC50 [2] | Ratio hCT/hAmylin binding [3] | IC50 [4]
K([AEEA-AEEA-γGlu-C20 diacid])CNTATCATQRLANFLRHSSPNFGAIPSSTNVGHNTY-NH2 (disulfide 2-7; N-terminus assumed; SMILES CC[C@H](C)[C@H](NC(=O)[C@H](C)NC(=O)CNC(=O)[C@H](Cc1ccccc1)NC(=O)[C@H](CC(N)=O)NC(=O)[C@@H]1CCCN1C(=O)[C@H](CO)NC(=O)[C@H](CO)NC(=O)[C@H](Cc1c[nH]cn1)NC(=O)[C@H](CCCNC(=N)N)NC(=O)[C@H](CC(C)C)NC(=O)[C@H](Cc1ccccc1)NC(=O)[C@H](CC(N)=O)NC(=O)[C@H](C)NC(=O)[C@H](CC(C)C)NC(=O)[C@H](CCCNC(=N)N)NC(=O)[C@H](CCC(N)=O)NC(=O)[C@@H](NC(=O)[C@H](C)NC(=O)[C@@H]1CSSC[C@H](NC(=O)[C@@H](N)CCCCNC(=O)COCCOCCNC(=O)COCCOCCNC(=O)CC[C@H](NC(=O)CCCCCCCCCCCCCCCCCCC(=O)O)C(=O)O)C(=O)N[C@@H](CC(N)=O)C(=O)N[C@@H]([C@@H](C)O)C(=O)N[C@@H](C)C(=O)N[C@@H]([C@@H](C)O)C(=O)N1)[C@@H](C)O)C(=O)N1CCC[C@H]1C(=O)N[C@@H](CO)C(=O)N[C@@H](CO)C(=O)N[C@H](C(=O)N[C@@H](CC(N)=O)C(=O)N[C@H](C(=O)NCC(=O)N[C@@H](Cc1c[nH]cn1)C(=O)N[C@@H](CC(N)=O)C(=O)N[C@H](C(=O)N[C@@H](Cc1ccc(O)cc1)C(N)=O)[C@@H](C)O)C(C)C)[C@@H](C)O, also called compound 97) | 71.1 | 2.24 nM | 104 | 159 nM
K([AEEA-AEEA-γGlu-C20 diacid])CNTATCATQRLANFLRHSSPNFGAIPSSTPVGSNTY-NH2 (disulfide 2-7; N-terminus assumed; SMILES CC[C@H](C)[C@H](NC(=O)[C@H](C)NC(=O)CNC(=O)[C@H](Cc1ccccc1)NC(=O)[C@H](CC(N)=O)NC(=O)[C@@H]1CCCN1C(=O)[C@H](CO)NC(=O)[C@H](CO)NC(=O)[C@H](Cc1c[nH]cn1)NC(=O)[C@H](CCCNC(=N)N)NC(=O)[C@H](CC(C)C)NC(=O)[C@H](Cc1ccccc1)NC(=O)[C@H](CC(N)=O)NC(=O)[C@H](C)NC(=O)[C@H](CC(C)C)NC(=O)[C@H](CCCNC(=N)N)NC(=O)[C@H](CCC(N)=O)NC(=O)[C@@H](NC(=O)[C@H](C)NC(=O)[C@@H]1CSSC[C@H](NC(=O)[C@@H](N)CCCCNC(=O)COCCOCCNC(=O)COCCOCCNC(=O)CC[C@H](NC(=O)CCCCCCCCCCCCCCCCCCC(=O)O)C(=O)O)C(=O)N[C@@H](CC(N)=O)C(=O)N[C@@H]([C@@H](C)O)C(=O)N[C@@H](C)C(=O)N[C@@H]([C@@H](C)O)C(=O)N1)[C@@H](C)O)C(=O)N1CCC[C@H]1C(=O)N[C@@H](CO)C(=O)N[C@@H](CO)C(=O)N[C@H](C(=O)N1CCC[C@H]1C(=O)N[C@H](C(=O)NCC(=O)N[C@@H](CO)C(=O)N[C@@H](CC(N)=O)C(=O)N[C@H](C(=O)N[C@@H](Cc1ccc(O)cc1)C(N)=O)[C@@H](C)O)C(C)C)[C@@H](C)O, also called compound 96) | 118 | 0.529 nM | 79.6 | 62.2 nM
K([AEEA-AEEA-γGlu-C20 diacid])CNTATCATQRLANFLRHSSPNFGAIPSSTNVGPNTY-NH2 (disulfide 2-7; N-terminus assumed; SMILES CC[C@H](C)[C@H](NC(=O)[C@H](C)NC(=O)CNC(=O)[C@H](Cc1ccccc1)NC(=O)[C@H](CC(N)=O)NC(=O)[C@@H]1CCCN1C(=O)[C@H](CO)NC(=O)[C@H](CO)NC(=O)[C@H](Cc1c[nH]cn1)NC(=O)[C@H](CCCNC(=N)N)NC(=O)[C@H](CC(C)C)NC(=O)[C@H](Cc1ccccc1)NC(=O)[C@H](CC(N)=O)NC(=O)[C@H](C)NC(=O)[C@H](CC(C)C)NC(=O)[C@H](CCCNC(=N)N)NC(=O)[C@H](CCC(N)=O)NC(=O)[C@@H](NC(=O)[C@H](C)NC(=O)[C@@H]1CSSC[C@H](NC(=O)[C@@H](N)CCCCNC(=O)COCCOCCNC(=O)COCCOCCNC(=O)CC[C@H](NC(=O)CCCCCCCCCCCCCCCCCCC(=O)O)C(=O)O)C(=O)N[C@@H](CC(N)=O)C(=O)N[C@@H]([C@@H](C)O)C(=O)N[C@@H](C)C(=O)N[C@@H]([C@@H](C)O)C(=O)N1)[C@@H](C)O)C(=O)N1CCC[C@H]1C(=O)N[C@@H](CO)C(=O)N[C@@H](CO)C(=O)N[C@H](C(=O)N[C@@H](CC(N)=O)C(=O)N[C@H](C(=O)NCC(=O)N1CCC[C@H]1C(=O)N[C@@H](CC(N)=O)C(=O)N[C@H](C(=O)N[C@@H](Cc1ccc(O)cc1)C(N)=O)[C@@H](C)O)C(C)C)[C@@H](C)O, also called compound 98) | 176 | 0.137 nM | 74.1 | 24.1 nM
K([AEEA-γGlu-C20 diacid])CNTATCATQRLAHFLRHSSPNFGAIPSSTNVGRNTY-NH2 (disulfide 2-7; N-terminus assumed; SMILES CC[C@H](C)[C@H](NC(=O)[C@H](C)NC(=O)CNC(=O)[C@H](Cc1ccccc1)NC(=O)[C@H](CC(N)=O)NC(=O)[C@@H]1CCCN1C(=O)[C@H](CO)NC(=O)[C@H](CO)NC(=O)[C@H](Cc1c[nH]cn1)NC(=O)[C@H](CCCNC(=N)N)NC(=O)[C@H](CC(C)C)NC(=O)[C@H](Cc1ccccc1)NC(=O)[C@H](Cc1c[nH]cn1)NC(=O)[C@H](C)NC(=O)[C@H](CC(C)C)NC(=O)[C@H](CCCNC(=N)N)NC(=O)[C@H](CCC(N)=O)NC(=O)[C@@H](NC(=O)[C@H](C)NC(=O)[C@@H]1CSSC[C@H](NC(=O)[C@@H](N)CCCCNC(=O)COCCOCCNC(=O)CC[C@H](NC(=O)CCCCCCCCCCCCCCCCCCC(=O)O)C(=O)O)C(=O)N[C@@H](CC(N)=O)C(=O)N[C@@H]([C@@H](C)O)C(=O)N[C@@H](C)C(=O)N[C@@H]([C@@H](C)O)C(=O)N1)[C@@H](C)O)C(=O)N1CCC[C@H]1C(=O)N[C@@H](CO)C(=O)N[C@@H](CO)C(=O)N[C@H](C(=O)N[C@@H](CC(N)=O)C(=O)N[C@H](C(=O)NCC(=O)N[C@@H](CCCNC(=N)N)C(=O)N[C@@H](CC(N)=O)C(=O)N[C@H](C(=O)N[C@@H](Cc1ccc(O)cc1)C(N)=O)[C@@H](C)O)C(C)C)[C@@H](C)O, also called compound 84) | 94.3 | 5.05 nM | 120 | 477 nM
